Measurements as given in article PMC12603107 (2025).

Biological target: T1, CI-M6P/IGF2R domains 11-13 (Homo sapiens, UniProt P11717)
T1 chain: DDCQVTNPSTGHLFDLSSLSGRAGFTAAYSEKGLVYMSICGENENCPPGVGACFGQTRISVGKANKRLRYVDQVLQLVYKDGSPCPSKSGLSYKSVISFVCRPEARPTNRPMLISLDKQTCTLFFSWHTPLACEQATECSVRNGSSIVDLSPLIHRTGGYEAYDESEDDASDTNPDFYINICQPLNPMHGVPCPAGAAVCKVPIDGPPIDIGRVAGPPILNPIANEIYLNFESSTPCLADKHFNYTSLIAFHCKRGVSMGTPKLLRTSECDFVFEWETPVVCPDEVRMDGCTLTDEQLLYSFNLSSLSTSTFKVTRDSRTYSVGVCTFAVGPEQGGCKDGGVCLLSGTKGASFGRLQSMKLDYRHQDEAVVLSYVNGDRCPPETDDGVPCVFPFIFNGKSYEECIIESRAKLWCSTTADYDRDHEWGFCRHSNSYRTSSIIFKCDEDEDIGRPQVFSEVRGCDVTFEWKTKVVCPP
Assay: competitive ELISA (biotinylated IGF2)

B1: IGF2 peptide (des1-6) 7-67 (protein)
chain: KSMLVLLTFLAFASCCIAAYRPSETLCGGELVDTLQFVCGDRGFYFSRPASRVSRRSRGIV
IC50: ~5 nM
